B1: single-stranded DNA (#1) (ssDNA)
DNA: ACGCTGCCGAATTCTACCAGTGCCTTGCTAGGACATCTTTGCCCACCTGCAGGTTCACCC
B2: D-loop (#1, #6, #7) (structured_DNA)
DNA 1: B1 DNA
DNA 2: GGGTGAACCTGCAGGTGGGCAGGAAGGCAAAATGCCGCAACTGGTAGAATTCGGCAGCGT
DNA 3: TTGCGGCATTTTGCCTTCCTCGGCCAGTGAATTCGAGCTC

Target: SHOC1 570-1111 (Homo sapiens, UniProt Q5VXU9 570-1111)
Experiment: EMSA; 2 mM Mg2+; 20 mM Tris-HCl pH 7.4, 1 mM DTT, 2 mM MgCl2, 100 mM NaCl, 10 uM 32P-DNA (so in the source), 20 ul, 10 min at 37 C; 8% PAGE in 1x TAE
Conditions: protein: recombinant, label: 5'-32P on #1

Chain of SHOC1 570-1111 (Q5VXU9 570-1111): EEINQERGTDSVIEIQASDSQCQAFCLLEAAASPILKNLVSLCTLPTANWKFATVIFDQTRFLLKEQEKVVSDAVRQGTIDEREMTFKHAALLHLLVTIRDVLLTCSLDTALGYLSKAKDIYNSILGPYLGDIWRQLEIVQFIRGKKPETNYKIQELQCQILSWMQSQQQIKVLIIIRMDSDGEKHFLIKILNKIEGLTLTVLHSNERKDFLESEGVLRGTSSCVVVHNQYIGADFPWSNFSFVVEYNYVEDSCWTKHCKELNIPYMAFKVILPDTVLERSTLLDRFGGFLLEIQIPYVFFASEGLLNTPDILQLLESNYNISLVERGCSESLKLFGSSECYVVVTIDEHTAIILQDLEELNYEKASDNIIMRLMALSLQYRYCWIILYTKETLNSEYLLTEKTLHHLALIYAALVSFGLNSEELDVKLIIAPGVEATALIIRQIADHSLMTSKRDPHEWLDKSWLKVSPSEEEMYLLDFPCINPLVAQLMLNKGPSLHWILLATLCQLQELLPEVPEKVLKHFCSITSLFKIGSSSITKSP

Binder	binding result (single strand, 60 nt)	binding result (D-loop 1:2 2:3, invading strand 3 pairs by its 5' 20 nt, 3' 20 nt tail)
B1	binds	
B2		binds

Reference: PMC5962103, “SHOC1 is a ERCC4-(HhH)2-like protein, integral to the formation of crossover recombination intermediates during mammalian meiosis”
